Test results taken from US20240181094A1, “[161Tb]-BASED RADIOPEPTIDES” (priority 2021, published 2024).
Positions of bridges follow the written chain, without caps; N, C: chain ends. Non-standard residues stand in square brackets, D forms with d. Residues, ends and D or L forms follow the SMILES beside them. *: point of attachment. DOTA = O=C(O)CN1CCN(CC(=O)O)CCN(CC(=O)*)CCN(CC(=O)O)CC1; dPhe(4-NHCONH2) = NC(=O)Nc1ccc(C[C@@H](N)C(=O)O)cc1; Phe(4-Cl) = N[C@@H](Cc1ccc(Cl)cc1)C(=O)O

Columns and labels:
[1] = test system: AR42 J tumor-bearing mice; test: Preclinical therapy study in AR42 J tumor-bearing mice; format: in vivo; settings: 2 x 10 MBq
[2] = mouse, in vivo
Procedure: Early side effects were assessed based on the RBW of each mouse which was monitored every second day. When an endpoint was reached or at the end of the study (after 49 days), relevant organs and tissues were collected, weighed and put into relation to the brain mass and body weight of the respective mouse. This allowed comparison of organ-to-brain and organ-to-body mass weight ratios. In addition, blood plasma parameters from blood collected immediately after euthanasia were measured.
RBW, organ mass and mass ratios at the endpoint. The RBW was monitored every second day. Mice were euthanized when a predefined endpoint criterion was reached or when the study was terminated at Day 49. RBWs, organ masses, organ mass ratios (kidney-to-brain, liver-to-brain and spleen-to-brain) and organ mass to body weight ratios (kidney-to-body mass, liver-to-body mass and spleen-to-body mass) were analyzed for significance using a one-way ANOVA test with a Tukey's multiple comparisons post-test. A p-value of <0.05 was considered as statistically significant.
Blood plasma chemistry: Immediately before euthanasia of the mice that reached the endpoint, blood was sampled from the retrobulbar vein. The values of creatinine (CRE), blood urea nitrogen (BUN), alkaline phosphatase (ALP), total bilirubin (TBIL) and albumin (ALB) were determined in the plasma after centrifugation of the blood using a dry chemistry analyzer (DRI-CHEM 4000 i, FUJIFILM, Japan). The average blood plasma parameters of each group were analyzed for significance using a one-way ANOVA test with a Tukey's multiple comparisons post-test. A p-value of <0.05 was considered as statistically significant.

AR42J tumor-bearing mice = test: Biodistribution studies: assessment of the optimum injected molar amount; settings: 2 h p.i.
in vivo = settings: female, athymic nude CD-1 Foxn-1/nu, mouse, iv, 1 nmol/mouse, total radioactivity

C[C@@H](O)[C@@H]1NC(=O)[C@H](CCCCN)NC(=O)[C@@H](Cc2c[nH]c3ccccc23)NC(=O)[C@H](Cc2ccc(O)cc2)NC(=O)[C@@H](NC(=O)[C@@H](Cc2ccccc2)NC(=O)CN2CCN(CC(=O)O)CCN(CC(=O)O)CCN(CC(=O)O)CC2)CSSC[C@@H](C(=O)N[C@H](CO)[C@@H](C)O)NC1=O [[^161Tb]Tb-DOTATOC] [metal not drawn]
Median survival ([1]; 0.2 nmol (Day 0, Day 7)): 21 days | tumor growth delay ([1]; 0.2 nmol (Day 0, Day 7)): 9.0 ± 5.5 days | tumor doubling time ([1]; 0.2 nmol, regrowth phase, fitted exponential curve): 3.4 ± 3.6 days | ALB (albumin), plasma [2]: 23 ± 2 g/L | ALP (alkaline phosphatase), plasma [2]: 76 ± 21 U/L | BUN (blood urea nitrogen), plasma [2]: 5.8 ± 1.0 mmol/L | CRE (creatinine), plasma [2]: <18 µmol/L | Organ mass Brain [2]: 440 ± 23 mg | Organ mass Kidneys [2]: 352 ± 27 mg | Organ mass Liver [2]: 1195 ± 57 mg | Organ mass Spleen [2]: 86 ± 19 mg | AR42J Tumor uptake (AR42J tumor-bearing mice; 0.040 nmol/mouse): 16 ± 4 % IA/g | Adrenals uptake (AR42J tumor-bearing mice; 0.040 nmol/mouse): 0.65 ± 0.08 % IA/g | Intestines uptake (AR42J tumor-bearing mice; 0.040 nmol/mouse): 0.52 ± 0.15 % IA/g | Kidneys uptake (AR42J tumor-bearing mice; 0.040 nmol/mouse): 9.0 ± 2.0 % IA/g | Liver uptake (AR42J tumor-bearing mice; 0.040 nmol/mouse): 0.22 ± 0.02 % IA/g | Pancreas uptake (AR42J tumor-bearing mice; 0.040 nmol/mouse): 2.1 ± 0.5 % IA/g | Spleen uptake (AR42J tumor-bearing mice; 0.040 nmol/mouse): 0.50 ± 0.11 % IA/g | Stomach uptake (AR42J tumor-bearing mice; 0.040 nmol/mouse): 2.9 ± 1.1 % IA/g | AR42J Tumor uptake (AR42J tumor-bearing mice; 0.20 nmol/mouse): 14 ± 1 % IA/g | Adrenals uptake (AR42J tumor-bearing mice; 0.20 nmol/mouse): 0.43 ± 0.11 % IA/g | Blood uptake (AR42J tumor-bearing mice; 0.20 nmol/mouse): ≤0.10 % IA/g | Femur uptake (AR42J tumor-bearing mice; 0.20 nmol/mouse): 0.12 ± 0.03 % IA/g | Intestines uptake (AR42J tumor-bearing mice; 0.20 nmol/mouse): 0.24 ± 0.01 % IA/g | Kidneys uptake (AR42J tumor-bearing mice; 0.20 nmol/mouse): 9.4 ± 0.4 % IA/g | Liver uptake (AR42J tumor-bearing mice; 0.20 nmol/mouse): 0.19 ± 0.03 % IA/g | Lung uptake (AR42J tumor-bearing mice; 0.20 nmol/mouse): 0.47 ± 0.05 % IA/g | Pancreas uptake (AR42J tumor-bearing mice; 0.20 nmol/mouse): 1.5 ± 0.2 % IA/g | Spleen uptake (AR42J tumor-bearing mice; 0.20 nmol/mouse): 0.18 ± 0.02 % IA/g | AR42J Tumor uptake (AR42J tumor-bearing mice; 1.0 nmol/mouse): 8.2 ± 0.2 % IA/g | Adrenals uptake (AR42J tumor-bearing mice; 1.0 nmol/mouse): 0.25 ± 0.06 % IA/g | Blood uptake (AR42J tumor-bearing mice; 1.0 nmol/mouse): ≤0.10 % IA/g | Femur uptake (AR42J tumor-bearing mice; 1.0 nmol/mouse): ≤0.10 % IA/g | Heart uptake (AR42J tumor-bearing mice; 1.0 nmol/mouse): ≤0.10 % IA/g | Intestines uptake (AR42J tumor-bearing mice; 1.0 nmol/mouse): 0.21 ± 0.13 % IA/g | Kidneys uptake (AR42J tumor-bearing mice; 1.0 nmol/mouse): 9.9 ± 1.3 % IA/g | Liver uptake (AR42J tumor-bearing mice; 1.0 nmol/mouse): 0.17 ± 0.01 % IA/g | Lung uptake (AR42J tumor-bearing mice; 1.0 nmol/mouse): 0.27 ± 0.03 % IA/g | Muscle uptake (AR42J tumor-bearing mice; 1.0 nmol/mouse): ≤0.10 % IA/g | Pancreas uptake (AR42J tumor-bearing mice; 1.0 nmol/mouse): 0.71 ± 0.07 % IA/g | Spleen uptake (AR42J tumor-bearing mice; 1.0 nmol/mouse): 0.11 ± 0.02 % IA/g | Stomach uptake (AR42J tumor-bearing mice; 1.0 nmol/mouse): 0.74 ± 0.38 % IA/g | kidney uptake (AR42J tumor-bearing mice; irrespective of the injected amount of peptide): ~10 % IA/g

C[C@@H](O)[C@@H]1NC(=O)[C@H](CCCCN)NC(=O)[C@@H](Cc2ccc(NC(N)=O)cc2)NC(=O)[C@H](Cc2ccc(O)cc2)NC(=O)[C@H](NC(=O)[C@H](Cc2ccc(Cl)cc2)NC(=O)CN2CCN(CC(=O)O)CCN(CC(=O)O)CCN(CC(=O)O)CC2)CSSC[C@@H](C(=O)N[C@H](Cc2ccc(O)cc2)C(N)=O)NC1=O [metal not drawn] ({DOTA}-[Phe(4-Cl)][dC]Y[dPhe(4-NHCONH2)]KTC[dY]-NH2; disulfide 2-7)
ALB (albumin), plasma [2]: 23 ± 1 g/L | ALP (alkaline phosphatase), plasma [2]: 66 ± 5 U/L | CRE (creatinine), plasma [2]: 19 µmol/L | Organ mass Brain [2]: 471 ± 30 mg | Organ mass Kidneys [2]: 336 ± 13 mg | Organ mass Liver [2]: 1254 ± 106 mg | Organ mass Spleen [2]: 92 ± 17 mg | tissue uptake at 2 h (in vivo): ≤ 0.1 %ID/g | tissue uptake at 24 h (in vivo): ≤ 0.1 %ID/g
